In patent publication US20220396632A1 (VERSEAU THERAPEUTICS, published 2022):
Non-standard residues stand in square brackets, D forms with d. No end group written: not given here. *: point of attachment. Biotin = O=C1N[C@H]2[C@H](CS[C@H]2CCCCC(=O)*)N1; sY = N[C@@H](Cc1ccc(OS(=O)(=O)O)cc1)C(=O)O

T1: SulfoTyr C4 peptide (not fully specified; Y4, Y7 and Y9 sulfated (SO3); C-terminal biotin)
T1 construct: also called C4 alpha chain peptide; human sulfotyrosinylated C4 peptide
T1 peptide: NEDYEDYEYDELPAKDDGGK

T2: Sulfotyr fibrinogen γ peptide (not fully specified; Y8 and Y12 sulfated (SO3); C-terminal biotin)
T2 construct: also called Fibrinogen gamma peptide; human sulfotyrosinylated fibrinogen peptide
T2 peptide: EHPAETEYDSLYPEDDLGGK

T3: Human fibrinogen protein (ThermoFisher, RP-43142) (human, UniProt P02671 20-629; P02675 31-491; P02679 27-453, limits assumed, natural sulfotyrosines)
T3 construct: mature; Native dimer with 3 pairs of non-identical chains; also called gamma-fibrinogen; γ fibrinogen protein
T3 sequence (looked up) 1: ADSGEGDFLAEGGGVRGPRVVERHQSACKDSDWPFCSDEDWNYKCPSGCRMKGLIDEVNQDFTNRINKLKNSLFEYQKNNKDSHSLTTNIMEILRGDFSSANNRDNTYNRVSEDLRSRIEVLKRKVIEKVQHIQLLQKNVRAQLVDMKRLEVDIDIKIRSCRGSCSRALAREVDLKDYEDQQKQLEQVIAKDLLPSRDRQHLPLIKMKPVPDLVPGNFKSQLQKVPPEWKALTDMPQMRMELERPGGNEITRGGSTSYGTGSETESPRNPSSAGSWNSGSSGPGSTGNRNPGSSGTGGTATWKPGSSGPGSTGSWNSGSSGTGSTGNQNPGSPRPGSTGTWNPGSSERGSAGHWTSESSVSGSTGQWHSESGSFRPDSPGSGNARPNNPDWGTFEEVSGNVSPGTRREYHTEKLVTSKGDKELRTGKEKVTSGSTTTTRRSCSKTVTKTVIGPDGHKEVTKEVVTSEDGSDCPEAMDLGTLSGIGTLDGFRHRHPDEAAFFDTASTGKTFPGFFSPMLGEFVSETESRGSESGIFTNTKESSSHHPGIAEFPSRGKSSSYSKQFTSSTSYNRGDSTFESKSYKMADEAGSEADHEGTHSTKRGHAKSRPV
T3 sequence (looked up) 2: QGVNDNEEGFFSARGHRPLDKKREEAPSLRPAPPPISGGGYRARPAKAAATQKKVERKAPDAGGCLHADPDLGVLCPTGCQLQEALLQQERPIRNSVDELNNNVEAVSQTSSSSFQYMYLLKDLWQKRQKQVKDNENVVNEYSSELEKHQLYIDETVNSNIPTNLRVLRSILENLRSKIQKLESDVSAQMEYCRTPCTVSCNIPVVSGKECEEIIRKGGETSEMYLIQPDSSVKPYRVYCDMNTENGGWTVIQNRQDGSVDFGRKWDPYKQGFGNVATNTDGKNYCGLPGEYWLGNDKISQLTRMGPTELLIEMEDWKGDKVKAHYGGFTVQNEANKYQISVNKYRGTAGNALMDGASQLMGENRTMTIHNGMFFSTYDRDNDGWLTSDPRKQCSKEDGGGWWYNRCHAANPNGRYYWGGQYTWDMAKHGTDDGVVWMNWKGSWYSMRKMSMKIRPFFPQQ
T3 sequence (looked up) 3: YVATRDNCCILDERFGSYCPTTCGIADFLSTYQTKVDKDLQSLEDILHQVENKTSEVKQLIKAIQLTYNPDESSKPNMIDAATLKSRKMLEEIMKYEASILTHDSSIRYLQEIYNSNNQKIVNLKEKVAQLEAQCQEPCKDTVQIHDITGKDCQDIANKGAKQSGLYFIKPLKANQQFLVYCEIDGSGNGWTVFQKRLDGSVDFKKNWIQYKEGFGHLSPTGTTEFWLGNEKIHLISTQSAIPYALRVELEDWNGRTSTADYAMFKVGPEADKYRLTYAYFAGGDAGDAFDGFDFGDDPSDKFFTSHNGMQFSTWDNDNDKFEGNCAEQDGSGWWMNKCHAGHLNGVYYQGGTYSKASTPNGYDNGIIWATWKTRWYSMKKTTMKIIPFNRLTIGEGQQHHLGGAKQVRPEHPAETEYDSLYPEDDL

T4: Sulfotyrosine CCR2b biotin peptide (human)
T4 construct: also called CCR2b peptide
T4 peptide: TTFFD[sY]D[sY]GAPSHGGK(Biotin)


How the values were obtained:
Experiment in all cases: ELISA, 50 nM mAb
[1] = molecular target: T1, SulfoTyr C4 peptide
Description: (§1) Recombinant PSGL-1-hFc1 chimera protein consisting of PSGL-1's extracellular domain (ECD) served as a positive control. […] Primary antibody was added (25 ul per well) in duplicate at 50 nM in assay buffer (blocking buffer containing 0.05% Tween®20) into test and control (just blocked) wells and the plate incubated for 45 min at 37° C.

[2] = molecular target: T2, Sulfotyr fibrinogen γ peptide
Description: as §1

[3] = molecular target: T5, Human complement C4 protein (Millipore Sigma, Cat. 204886) (human, UniProt P0C0L4 20-675; P0C0L4 680-1446; P0C0L4 1454-1744, limits assumed, natural sulfotyrosines)
T5 construct: mature
Description: as §1

[4] = molecular target: T3, Human fibrinogen protein (ThermoFisher, …)
Description: as §1

[5] = molecular target: T4, Sulfotyrosine CCR2b biotin peptide
Description: as §1

T5 sequence (P0C0L4 20-675 limits assumed, form in doubt, chain 1 of 3): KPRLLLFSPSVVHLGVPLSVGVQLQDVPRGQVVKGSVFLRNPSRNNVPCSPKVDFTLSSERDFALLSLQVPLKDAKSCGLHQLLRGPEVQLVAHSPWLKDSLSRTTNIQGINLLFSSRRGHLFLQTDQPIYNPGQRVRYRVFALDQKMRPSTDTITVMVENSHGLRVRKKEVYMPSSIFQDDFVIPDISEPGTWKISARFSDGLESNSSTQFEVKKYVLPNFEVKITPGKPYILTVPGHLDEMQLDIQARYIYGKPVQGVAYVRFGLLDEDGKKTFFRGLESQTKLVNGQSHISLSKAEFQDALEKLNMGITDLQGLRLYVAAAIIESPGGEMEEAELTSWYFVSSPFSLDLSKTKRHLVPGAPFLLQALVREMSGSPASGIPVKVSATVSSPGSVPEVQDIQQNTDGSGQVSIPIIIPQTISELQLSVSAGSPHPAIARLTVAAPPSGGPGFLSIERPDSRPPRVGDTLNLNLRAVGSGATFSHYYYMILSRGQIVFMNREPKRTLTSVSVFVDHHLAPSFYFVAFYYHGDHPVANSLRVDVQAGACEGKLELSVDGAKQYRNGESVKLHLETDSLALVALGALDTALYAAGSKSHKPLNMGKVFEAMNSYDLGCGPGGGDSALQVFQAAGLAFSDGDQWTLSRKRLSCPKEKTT
T5 sequence (P0C0L4 680-1446 limits assumed, form in doubt, chain 2 of 3): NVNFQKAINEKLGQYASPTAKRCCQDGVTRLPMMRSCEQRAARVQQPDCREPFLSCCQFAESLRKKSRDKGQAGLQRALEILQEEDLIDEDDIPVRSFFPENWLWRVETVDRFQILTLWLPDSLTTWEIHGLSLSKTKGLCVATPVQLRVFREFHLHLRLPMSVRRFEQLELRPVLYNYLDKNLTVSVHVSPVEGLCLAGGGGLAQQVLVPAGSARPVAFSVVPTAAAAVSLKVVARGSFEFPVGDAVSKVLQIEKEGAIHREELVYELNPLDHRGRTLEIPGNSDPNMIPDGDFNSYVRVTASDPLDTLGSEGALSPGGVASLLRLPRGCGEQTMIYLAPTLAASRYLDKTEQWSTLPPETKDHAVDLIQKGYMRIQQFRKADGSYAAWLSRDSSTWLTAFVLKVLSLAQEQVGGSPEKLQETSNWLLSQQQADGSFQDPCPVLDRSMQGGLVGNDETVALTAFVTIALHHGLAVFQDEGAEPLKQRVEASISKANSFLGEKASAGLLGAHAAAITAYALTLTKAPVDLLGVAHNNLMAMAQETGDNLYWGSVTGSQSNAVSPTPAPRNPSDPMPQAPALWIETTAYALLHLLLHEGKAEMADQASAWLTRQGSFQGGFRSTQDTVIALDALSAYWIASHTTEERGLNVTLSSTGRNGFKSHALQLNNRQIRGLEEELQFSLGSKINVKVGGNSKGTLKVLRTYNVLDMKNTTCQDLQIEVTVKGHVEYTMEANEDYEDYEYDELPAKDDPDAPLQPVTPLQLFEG
T5 sequence (P0C0L4 1454-1744 limits assumed, form in doubt, chain 3 of 3): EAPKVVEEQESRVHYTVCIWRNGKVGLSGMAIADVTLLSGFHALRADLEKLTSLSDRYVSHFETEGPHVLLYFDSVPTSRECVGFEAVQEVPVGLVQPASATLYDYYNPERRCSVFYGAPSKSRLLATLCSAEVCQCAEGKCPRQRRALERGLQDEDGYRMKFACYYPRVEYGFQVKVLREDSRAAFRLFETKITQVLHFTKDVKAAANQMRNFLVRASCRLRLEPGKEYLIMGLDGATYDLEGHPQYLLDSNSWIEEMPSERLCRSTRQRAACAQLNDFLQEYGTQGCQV

Row | Binder | binding normalized to PSGL-1 [1] | binding normalized to PSGL-1 [2] | binding normalized to PSGL-1 [3] | binding normalized to PSGL-1 [4] | binding normalized to PSGL-1 [5]
1 | 09A02 (antibody, IgG4, V domains shown) VH: EVQLVQSGGGLVKPGGSLRLSCAASGFTFRTAWMSWVRQAPGKGLEWVGRMKSKNDGGTTDYAAPVKGRFTISRDDSRDTVYLQMNSLKTEDTGVYYCATYAAGATVPWGQGTLVTVSS VL: DIVMTQTPLSAPVTLGQPASISCRSSRSLLQRNGYNYVDWYQQKAGNPPRLLIYLGSRRASGVPDRFSGSGSDKDFTLKISRVEADDVGFYFCKQSLQAPPTFGGGTKIEIT | 1 | 1.06 | 0.56 | 0.29 | 0.93
2 | 05C02 (antibody, V domains shown) VH: EVKLLESGGGVVQPGRSLRLSCAASGFTFKNFAMHWVRQAPGKGLEWVAVISYDGSSEDYADSVKGRFTLSRDNAKNSLYLQMNNLRAEDTAVYYCARGRRPDYWGQGTLVTVSS VL: not shown | 0.47 | 0.42 | 0.48 | 0.06 | 0.06
3 | 11D10 (antibody, IgG4, V domains shown) VH: EVKLLESGGGLVQPGGSLRLSCAVSGFTFSTSAMIWVRQAPGKGLEWVSFISGSTSNTYYADSVKGRFTISRDNSKNTLYLQMNGLTAEDTAVYYCARGTAAATWGQGALVTVSS VL: not shown | 0.07 | 0.26 | 0.09 | 0.03 | 0.04
4 | 09A08 (antibody, IgG4, V domains shown) VH: QVQLVQSGAAVKKPGESLKISCKGSGYTFSNYWIGWVRQMPGKGLEWMGIIYPGDSDTRYSPSFQGQVTISADKSISTAYLQWSSLKASDTAMYYCARHIVGPPKSAFDIWGQGTMVTVSS VL: DIVMTQTPLSLPVTLGQPASISCSSSQGLQKRDGNTYLNWFQQRPGQSPRRLIYKVSNRDSGVPDRFSGSGSGTDFTLKISRVEAEDVGVYYCMQGTHWPWTFGQGTRVEIK | 0.54 | 0.14 | 0.22 | 0.05 | 0.08
5 | 07E07 (antibody, IgG4, V domains shown) VH: QVQLQQSGAEVKKPGASVKVSCKASGYTFTSYYMHWVRQAPGQGLEWMGIINTSSGSTKYAQRFQDRVTVTRDTSTTTVYMELNSLRSEDTAVYYCARGGRAYSGSFDNWGQGTLVTVSS VL: DVVMTQSPLSLPVTLGQPASISCRSSQSLVHRDGNTYFNWFQQRPGQSPRRLIYKVSNRDSGVPDRFSGSGSGTDFTLKISRVEAEDVGVYYCMQATHWPRTFGQGTKVEIK | 0.97 | 1.04 | 1.04 | 0.29 | 0.75
6 | 06A07 (antibody, IgG4, V domains shown) VH: QVQLVQSGPELKNPGASVKVSCKASGYSFTNFYINWVRQAPGRGLEWVGWISPNNGNTHYARNLQGRVTMTTDTSTNTAYLELKNLRSDDTAIYFCGRSVSMGYWGQGTLVTVSS VL: LPVLTQPPSVSKGLRQTATLTCTGNSKNVGNQGAAWLQQHQGQPPKLLSYRNNNRPSGISERFSASRSGNTASLTITGLQPEDEADYYCSAWDSSLSAQVFGGGTKLTVL | 0.63 | 0.69 | 0.57 | 0.12 | 0.43
7 | 09D04 (antibody, IgG4, V domains shown) VH: QVQLQQSGGGLVQPGGSLTLSCVGSGFDFRSYAMSWVRQAPGKGLEWVSGINNSGSKTYYADFVKGRFSVSRDNSKNIVWLRMRSLRAEDTAVYYCARRTFGPPHAWGQGTMVTVSS VL: DVVMTQSPLSLPVTPGEPASISCRSSQSLLHSNGYTYLEWYLHKPGQSPQLLIYLGSNRASGVPDRFSGSGSGTDFTLKISRVEAEDVGVYYCMHSLHIPFTFGPGTKVDIK | 0.4 | 0.49 | 0.61 | 0.25 | 0.37
8 | 05H03 (antibody, IgG4, V domains shown) VH: QVQLQQSGGGLVQPGGSLTLSCVGSGFDFRSYAMSWVRQAPGKGLEWVSGINNSGSKTYYADFVKGRFSVSRDNSKNIVWLRMRSLRAEDTAVYYCARRTFGPPHAWGQGTMVTVSS VL: DIVMTQSPLSLSVTPGEPASISCRSSQSLLHSNGYKYLDWYLQKPGQSPQLLIYMGSNRASGVPDRFSGSGSGTDFTLKISRVEAEDVGVYYCMQGLQSPLTFGGGTKVEIE | 0.49 | 0.68 | 0.58 | 0.29 | 0.45
9 | 05D01 (antibody, V domains shown) VH: QVTLRESGGALVQPGGSLRLSCAASGFPLRSNAMTWVRQAPGKGLEWVSDIRGNGASTYYADSVKGRFTISRDDSNNILFLQMNSLRAEDTAVYYCVGHGSSSYWGQGTLVTVSS VL: DVVMTQSPLSLPVTLGQPASISCRSSQSLVYRDGNIYLNWFQQRPGQSPRRLIYKVSNRDSGVPDRFSGSGSGTDFTLKISRVEAEDVGVYYCMQLTHWPPGFAQGTKLEIK | 0.11 | 0.89 | 0.08 | 0.07 | 0.17
10 | 09C10 (antibody, V domains shown) VH: EVKLLESGGGLIQPGGSLRLSCAASGFTVSNNYVTWVRQAPGKGLELVSSIYSGGGTYYADSVKGRFTISRDNSKNTVYLQMNSLRADDTAVYYCARNVPVTNFGYWGQGTLVTVSS VL: DIVMTQSPLSLPVTLGQPASISCRSSQSLVYRDGNTYLNWFQQRPGQSPRRLIYKVSNRDSGVPDRFSGSGSGTDFTLKISRVEAEDVGVYYCMQLTHWPPGFAQGTKLEIK | 1.15 | 1.3 | 0.88 | 0.61 | 1.23
11 | 05A11 (antibody, IgG4, V domains shown) VH: EVKLLESGGGVVQPGRSLRLSCAASGFSFSAYGMHWVRQAPGKGLEWVSSISGSGDGTYYADSVKGRFTISRDNSKNTLYLQMNSLRAEDAAVYYCAKSVKGRGYFFDYWGQGTLVTVSS VL: DIVLTQSPSSLSASVGDRVTITCRASQSISSYLNWYQQKPGKAPKLLIYAASSLQSGVPSRFSGSGSGTDFTLSISNLQPEDFATYYCQQAYKFPRSFGGGTKVEFK | 0.44 | 0.87 | 0.44 | 0.21 | 0.09
12 | 03F03 (antibody, V domains shown) VH: QVQLQESGPGLVKPSETLSLTCTVSGGSISSSSYYWGWIRQPPGKGLEWIGSIYYSGSTYYNPSLKSRVTISVDTSKNQFSLKLSSVTAADTAVYYCARSRPRPWAFDIWGQGTMVTVSS VL: not shown | 1.19 | 1.33 | 1.35 | 0.23 | 1.21
